Patent publication EP4707390A1 (PeptiDream Inc., dated 2026)

Biological target: T1, Recombinant human IgG1 Fc protein (110-HG, R&D Systems) (human, UniProt P01857-1 100-330 = IgG part)
T1 construct: domain: Fc; Bought protein; also called human IgG Fc protein; biotinylated Fc
Assay: display assay, conjugates on linker 1 or 3, biotinylated Fc on streptavidin magnetic beads against beads without Fc, real-time PCR

B1: Fc-binding peptide encoded by the translation region of SEQ ID NO: 26 (peptide)
peptide: MPDCAYHKGELVWCTGGGGSS
modifications: C-terminus covalently bonded to the puromycin of the linker; sample treated with oxidized glutathione after reverse transcription
notes: Tested as an mRNA/cDNA-linker-peptide conjugate on monovalent linker 1 or divalent linker 3
B1: binds.
